Patent publication EP4803151A2 (Lepu Biopharma Co., Ltd., dated 2026)
Changes are numbered by the printed parent chain. Blank lines part the entries; values can stand above or below the binder they belong to.

Legend:
[1] = biological target: T1, ECD of human DLL3 over-expressed on HEK293 cells (human, UniProt Q9NYJ7 27-492); assay: flow cytometry on HEK293-hDLL3 cells
T1 construct: extracellular domain; also called HEK293-hDLL3; human DLL3 expressed on HEK293 cells
T1 sequence (looked up): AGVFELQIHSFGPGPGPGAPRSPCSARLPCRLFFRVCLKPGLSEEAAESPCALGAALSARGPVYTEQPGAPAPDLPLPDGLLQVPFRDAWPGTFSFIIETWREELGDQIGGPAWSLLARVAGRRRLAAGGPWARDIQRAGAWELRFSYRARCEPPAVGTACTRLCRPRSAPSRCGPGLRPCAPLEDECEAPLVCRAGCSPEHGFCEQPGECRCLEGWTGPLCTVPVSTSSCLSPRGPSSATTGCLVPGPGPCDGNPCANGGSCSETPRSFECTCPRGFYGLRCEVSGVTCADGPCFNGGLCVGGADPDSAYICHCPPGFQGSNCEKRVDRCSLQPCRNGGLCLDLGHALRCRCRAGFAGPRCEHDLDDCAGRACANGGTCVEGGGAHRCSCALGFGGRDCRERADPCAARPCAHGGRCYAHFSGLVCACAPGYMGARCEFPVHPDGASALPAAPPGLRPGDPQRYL

[2] = biological target: T2, human DLL3 endogenously expressed on SCLC tumor cell lines SHP77 and NCI-H82 (human, UniProt Q9NYJ7 27-618); assay: flow cytometry on SHP77 cells
T2 construct: whole, on cells; also called human DLL3 expressed on tumor cells
T2 sequence (looked up): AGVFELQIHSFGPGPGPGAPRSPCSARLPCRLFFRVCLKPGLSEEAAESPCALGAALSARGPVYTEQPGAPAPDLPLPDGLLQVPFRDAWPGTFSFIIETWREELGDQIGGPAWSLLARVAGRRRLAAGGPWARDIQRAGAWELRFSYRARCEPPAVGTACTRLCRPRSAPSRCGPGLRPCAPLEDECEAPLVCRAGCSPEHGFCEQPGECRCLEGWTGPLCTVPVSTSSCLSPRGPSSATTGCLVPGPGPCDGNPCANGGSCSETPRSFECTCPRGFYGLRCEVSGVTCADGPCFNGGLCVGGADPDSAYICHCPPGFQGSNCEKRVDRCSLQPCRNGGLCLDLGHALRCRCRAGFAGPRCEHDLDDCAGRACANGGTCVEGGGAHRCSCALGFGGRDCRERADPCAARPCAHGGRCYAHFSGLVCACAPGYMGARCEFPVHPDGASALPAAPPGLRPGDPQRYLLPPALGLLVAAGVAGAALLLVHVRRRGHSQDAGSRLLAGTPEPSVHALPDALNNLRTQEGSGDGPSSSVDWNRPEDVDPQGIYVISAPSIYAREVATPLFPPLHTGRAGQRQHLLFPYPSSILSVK

[3] = biological target: T3, ECD of human DLL3 protein fused with his tag (Acro Bio, Cat. No. DL3-H52H4) (human, UniProt Q9NYJ7 27-492); assay: ELISA, hDLL3-his coated
T3 construct: range 27-492; Bought protein; also called hDLL3-his; human DLL3-his protein; not shown: his tag
T3 sequence (looked up): T1 sequence (looked up)

[4] = biological target: T2, human DLL3 endogenously expressed on …; assay: flow cytometry on SHP77 and NCI-H82 cells
[5] = biological target: T4, human full length DLL1 expressed on CHO-K1 cells (human, UniProt O00548 18-723); assay: flow cytometry on CHO-K1-hDLL1 cells
T4 construct: whole, on cells; also called CHO-K1-hDLL1
T4 sequence (looked up): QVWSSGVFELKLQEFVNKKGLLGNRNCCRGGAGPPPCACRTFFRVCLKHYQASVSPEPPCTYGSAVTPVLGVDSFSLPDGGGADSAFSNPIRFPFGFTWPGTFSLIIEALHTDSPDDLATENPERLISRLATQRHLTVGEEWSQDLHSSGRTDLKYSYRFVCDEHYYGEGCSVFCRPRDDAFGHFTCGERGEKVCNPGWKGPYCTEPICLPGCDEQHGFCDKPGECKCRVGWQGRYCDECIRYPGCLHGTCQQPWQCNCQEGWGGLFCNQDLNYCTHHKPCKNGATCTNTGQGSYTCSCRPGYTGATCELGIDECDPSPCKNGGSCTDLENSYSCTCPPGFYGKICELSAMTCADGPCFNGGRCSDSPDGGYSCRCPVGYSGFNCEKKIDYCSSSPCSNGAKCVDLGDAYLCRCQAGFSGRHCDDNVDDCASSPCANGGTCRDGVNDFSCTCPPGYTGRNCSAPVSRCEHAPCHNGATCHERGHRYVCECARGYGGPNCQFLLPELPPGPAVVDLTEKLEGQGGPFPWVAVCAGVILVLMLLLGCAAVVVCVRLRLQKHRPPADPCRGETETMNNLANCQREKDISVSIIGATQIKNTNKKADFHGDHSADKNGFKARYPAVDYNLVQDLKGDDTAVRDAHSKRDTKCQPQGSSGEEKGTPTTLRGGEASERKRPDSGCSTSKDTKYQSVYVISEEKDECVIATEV

[6] = biological target: T5, human full length DLL4 expressed on CHO-K1 cells (human, UniProt Q9NR61 27-685); assay: flow cytometry on CHO-K1-hDLL4 cells
T5 construct: whole, on cells; also called CHO-K1-hDLL4
T5 sequence (Q9NR61 27-685): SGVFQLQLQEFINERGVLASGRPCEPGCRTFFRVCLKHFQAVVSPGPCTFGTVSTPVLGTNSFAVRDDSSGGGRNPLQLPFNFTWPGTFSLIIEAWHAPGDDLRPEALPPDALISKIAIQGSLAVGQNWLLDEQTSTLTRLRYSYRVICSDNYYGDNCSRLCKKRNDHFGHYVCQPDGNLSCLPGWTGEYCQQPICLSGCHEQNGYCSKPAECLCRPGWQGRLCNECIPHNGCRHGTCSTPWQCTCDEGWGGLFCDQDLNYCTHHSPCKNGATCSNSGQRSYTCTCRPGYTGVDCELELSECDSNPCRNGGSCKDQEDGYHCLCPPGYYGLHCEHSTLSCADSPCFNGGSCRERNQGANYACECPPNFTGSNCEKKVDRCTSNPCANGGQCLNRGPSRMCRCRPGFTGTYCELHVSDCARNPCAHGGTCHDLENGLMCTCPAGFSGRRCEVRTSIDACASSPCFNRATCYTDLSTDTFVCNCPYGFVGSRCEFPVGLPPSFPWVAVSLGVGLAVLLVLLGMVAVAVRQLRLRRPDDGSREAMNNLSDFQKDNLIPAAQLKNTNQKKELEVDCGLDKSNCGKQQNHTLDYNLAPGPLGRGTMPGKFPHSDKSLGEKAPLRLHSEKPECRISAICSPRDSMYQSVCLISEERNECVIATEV

binding result [1]: binds
binding result [2]: binds
B5: 310P3C5-z15p18 PTM removed humanized antibody (antibody, V domains shown)
VH: QVQLVQSGAEVKKPGASVKVSCKASGYTFTDFYMNWVKQAPGQGLEWIGDANPNRGGTTHNPRFKGRATLTVDKSASTAYMELRSLRSEDTAVYYCARGGLPGDFDYWGQGTTVTVSS
VL: DIQMTQSPSSLSASVGDRVTITCKASEDIYNRLAWYQQKPGKAPKLLISGVTSLETGVPSRFSGSGSGTDFTFTISSLQPEDIATYYCQQYWSFPWTFGGGTKVEIK
notes: variable regions fused to the constant region of human IgG1

binding result [3]: binds
B11: 310P3C5-z1 humanized antibody (antibody, human IgG1, kappa, V domains shown)
VH: B5 VH with K38R, I48M, R55N, A68V, L70M, V72T, K74T, A76T, E89D
VL: DIQMTQSPSSVSASVGDRVTITCKASEDIYNRLAWYQQKPGKAPKLLIYGVTSLETGVPSRFSGSGSGTDFTLTISSLQPEDFATYYCQQYWSFPWTFGGGTKVEIKR
notes: HU-VH1-1 with HU-VL1-1; human IgG1

binding result [1]: binds
binding result [2]: binds
B13: 310P3C5-z15p12 PTM removed humanized antibody (antibody, V domains shown)
VH: B5 VH with R55F
VL: B5 VL
notes: as for B5

binding result [1]: binds
binding result [4]: binds
binding result [5]: no binding
binding result [3]: binds
binding result [6]: no binding
B14: 310P3C5-z4 humanized antibody (antibody, human IgG1, kappa, V domains shown)
VH: B5 VH with K38R, R55N, R67Q, A76T, E89D
VL: B11 VL
notes: HU-VH1-4 with HU-VL1-1; human IgG1

binding result [1]: binds
binding result [4]: binds
binding result [5]: no binding
binding result [3]: binds
binding result [6]: no binding
B15: 310P3C5-z14 humanized antibody (antibody, human IgG1, kappa, V domains shown)
VH: B5 VH with R55N
VL: B11 VL
notes: HU-VH2 with HU-VL1-1; human IgG1

binding result [3]: binds
B16: 310P3C5-z9 humanized antibody (antibody, human IgG1, kappa, V domains shown)
VH: B5 VH with K38R, I48M, R55N, A68V, L70M, V72T, K74T, A76T, E89D
VL: B11 VL with Y49S, T69K
notes: HU-VH1-1 with HU-VL1-3; human IgG1

binding result [3]: binds
B17: 310P3C5-z10 humanized antibody (antibody, human IgG1, kappa, V domains shown)
VH: B5 VH with K38R, R55N, L70M, V72T, K74T, A76T, E89D
VL: B11 VL with Y49S, T69K
notes: HU-VH1-2 with HU-VL1-3; human IgG1

binding result [3]: binds
B18: 310P3C5-z11 humanized antibody (antibody, human IgG1, kappa, V domains shown)
VH: B5 VH with K38R, R55N, K74T, A76T, E89D
VL: B11 VL with Y49S, T69K
notes: HU-VH1-3 with HU-VL1-3; human IgG1

binding result [3]: binds
B19: 310P3C5-z6 humanized antibody (antibody, human IgG1, kappa, V domains shown)
VH: B5 VH with K38R, R55N, L70M, V72T, K74T, A76T, E89D
VL: B11 VL with Y49S
notes: HU-VH1-2 with HU-VL1-2; human IgG1

binding result [3]: binds
B20: 310P3C5-z2 humanized antibody (antibody, human IgG1, kappa, V domains shown)
VH: B5 VH with K38R, R55N, L70M, V72T, K74T, A76T, E89D
VL: B11 VL
notes: HU-VH1-2 with HU-VL1-1; human IgG1

binding result [1]: binds
binding result [4]: binds
binding result [5]: no binding
binding result [3]: binds
binding result [6]: no binding
B21: 310P3C5-z15 humanized antibody (antibody, human IgG1, kappa, V domains shown)
VH: B5 VH with R55N
VL: B11 VL with V11L, Y49S, L73F, F83I
notes: human IgG1

binding result [1]: binds
binding result [4]: binds
binding result [5]: no binding
binding result [3]: binds
binding result [6]: no binding
B22: 310P3C5-z12 humanized antibody (antibody, human IgG1, kappa, V domains shown)
VH: B5 VH with K38R, R55N, R67Q, A76T, E89D
VL: B11 VL with Y49S, T69K
notes: HU-VH1-4 with HU-VL1-3; human IgG1

The remaining lines, values behind:

B1: 310P3C5-z15p10 PTM removed humanized antibody (antibody, V domains shown)
VH: B5 VH with R55A
VL: B5 VL
notes: as for B5
binding result [1]: binds
binding result [2]: binds

B2: 310P3C5-z7 humanized antibody (antibody, human IgG1, kappa, V domains shown)
VH: B5 VH with K38R, R55N, K74T, A76T, E89D
VL: B11 VL with Y49S
notes: HU-VH1-3 with HU-VL1-2; human IgG1
binding result [3]: binds

B3: 310P3C5-z8 humanized antibody (antibody, human IgG1, kappa, V domains shown)
VH: B5 VH with K38R, R55N, R67Q, A76T, E89D
VL: B11 VL with Y49S
notes: HU-VH1-4 with HU-VL1-2; human IgG1
binding result [1]: binds
binding result [4]: binds
binding result [5]: no binding
binding result [3]: binds
binding result [6]: no binding

B4: 310P3C5-z3 humanized antibody (antibody, human IgG1, kappa, V domains shown)
VH: B5 VH with K38R, R55N, K74T, A76T, E89D
VL: B11 VL
notes: HU-VH1-3 with HU-VL1-1; human IgG1
binding result [3]: binds

B6: 310P3C5-z15p21 PTM removed humanized antibody (antibody, V domains shown)
VH: B5 VH with R55Y
VL: B5 VL
notes: as for B5
binding result [1]: binds
binding result [2]: binds

B7: 310P3C5-z15p20 PTM removed humanized antibody (antibody, V domains shown)
VH: B5 VH with R55W
VL: B5 VL
notes: as for B5
binding result [1]: binds
binding result [2]: binds

B8: 310P3C5-z15p13 PTM removed humanized antibody (antibody, V domains shown)
VH: B5 VH with R55H
VL: B5 VL
notes: as for B5
binding result [1]: binds
binding result [2]: binds

B9: 310P3C5-z15p19 PTM removed humanized antibody (antibody, V domains shown)
VH: B5 VH with R55V
VL: B5 VL
notes: as for B5
binding result [1]: binds
binding result [2]: binds

B10: 310P3C5-z13 humanized antibody (antibody, human IgG1, kappa, V domains shown)
VH: B5 VH with K38R, I48M, R55N, A68V, L70M, V72T, K74T, A76T, E89D
VL: B11 VL with V11L, Y49S, L73F, F83I
notes: HU-VH1-1 with HU-VL2; human IgG1
binding result [3]: binds

B12: 310P3C5-z5 humanized antibody (antibody, human IgG1, kappa, V domains shown)
VH: B5 VH with K38R, I48M, R55N, A68V, L70M, V72T, K74T, A76T, E89D
VL: B11 VL with Y49S
notes: HU-VH1-1 with HU-VL1-2; human IgG1
binding result [3]: binds
